Substitutions are numbered along the chain they refer to.
T1: Ribonuclease A (Type II-A) from bovine pancreas (bovine, UniProt P61823 27-150)
T1 sequence (looked up): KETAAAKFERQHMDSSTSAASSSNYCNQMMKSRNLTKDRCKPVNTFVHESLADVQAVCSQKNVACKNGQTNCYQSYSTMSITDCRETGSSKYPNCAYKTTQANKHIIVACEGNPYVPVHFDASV

B1: Fv-1, expressed soluble Fv antibody of clone 5 (His-tag-TdTomato-VH) (other)
chain: EVQLVESAAEVRRPGASVKITCKASGYSFSTYGIQWMRQAPGQRPEWLGWIHAGTGGTKYSRKFQGRITITRDTSANTVYLDLNSLTSEDTAVYYCARCGPDSDVMTDFWGQGTTVTVSS
notes: Fusion protein made in E. coli from a recombinant plasmid (pJS001 to pJS003, not tied one by one); molecular weight estimated 69.2 kDa; No light chain; also called expressed Fv antibody; TdTomato-labeled Fv antibody; not shown: His-tag; TdTomato fluorescent protein
B2: Fv-3, expressed soluble Fv antibody of clone 39 (His-tag-TdTomato-VH) (other)
chain: B1 chain with C99D, P101T, D102A, S103K, D104K, V105S, M106R, T107K, F109D
notes: Fusion protein made in E. coli; 69.2 kDa; No light chain; not shown: His-tag; TdTomato fluorescent protein
B3: Peptide-1, synthetic peptide with the CDR3 sequence of the screened clone (peptide)
peptide: CGPDSDVMTDF
notes: Bought from Peptron, 90% purity; Peptide-1 is tied to the CDR3 of clone 5 / Fv-1 by the order of the names only; also called peptides-1
B4: Peptide-2, synthetic peptide with the CDR3 sequence of the screened clone (peptide)
peptide: YGPVGRVKRDD
notes: also called peptides-2
B5: Peptide-3, synthetic peptide with the CDR3 sequence of the screened clone (peptide)
peptide: DGTAKKSRKDD
notes: also called peptides-3
B6: Fv-2, expressed soluble Fv antibody of clone 23 (His-tag-TdTomato-VH) (other)
chain: B1 chain with C99Y, D102V, S103G, D104R, M106K, T107R, F109D
notes: as for B2

What was measured:
[1] = molecular target: RNase A contained in the pig swab actual sample (pig (sample: pig swab)); assay: cell-based or functional assay
[2] = molecular target: RNase A contained in the saliva swab actual sample; assay: cell-based or functional assay
[3] = molecular target: T1, Ribonuclease A (Type II-A) from bovine …; assay: cell-based or functional assay
[4] = molecular target: RNase A contained in the actual serum sample; assay: cell-based or functional assay
[5] = molecular target: T1, Ribonuclease A (Type II-A) from bovine …; assay: SPR biosensor, RNase A immobilized on the Au chip, expressed Fv antibody in solution
Method: (§1) Binding analysis of the expressed FV antibody and synthesized peptides against RNase A was performed using an SPR (Surface Plasmon Resonance) biosensor from I-Cluebio (Seongnam, Korea). RNase A was immobilized on the gold surface of the SPR chip used in the SPR biosensor to conduct the binding analysis. For the manufacture of the SPR chip, a 2 nm thick titanium adhesive layer and a 48 nm thick gold surface were consecutively sputter-coated onto BK-7 glass (1×1 cm²). […] To analyze the binding of the expressed Fv antibody to RNase A, Fv antibodies in the concentration range of 0.37-100 nM were reacted using PBS buffer as the […] through association (10 minutes), equilibrium (5 minutes), and dissociation (10 minutes) steps. The washing buffer and total SPR measurements were performed at a flow rate of 15 μL/min. For the binding analysis of the synthesized peptides against RNase A, peptides in the concentration range of 0.37-100 nM were reacted using PBS buffer as the washing buffer through association (10 minutes), equilibrium (5 minutes), and dissociation (10 minutes) steps, and total SPR measurements were conducted at a flow rate of 15 μL/min.
(§2) Using the screened CDR3 amino acid sequences, the CDR3 regions of the screened Fv antibodies were synthesized as peptides, and the amino acid sequences were determined from the nucleotide sequences of the CDR3 regions as summarized in Table 2. These synthetic peptides (Peptide-1, Peptide-2, Peptide-3) and Fv antibodies (Fv-1, Fv-2, Fv-3) were identical to the amino acid sequences of the CDR3 regions of the screened clones. The expression of the Fv antibodies was confirmed using SDS-PAGE, and the molecular weight of the Fv antibodies was estimated to be 69.2 kDa as shown in FIG. 9. The affinity constants (KD) of these synthetic peptides and the expressed Fv antibodies against RNase A were estimated using an SPR biosensor.

[6] = molecular target: T1, Ribonuclease A (Type II-A) from bovine …; assay: cell-based or functional assay; remark: listed apart in the source
[7] = molecular target: T1, Ribonuclease A (Type II-A) from bovine …; assay: SPR, RNase A immobilized on the Au chip, fit of SPR signal against peptide concentration. The label is unnamed: it is printed in the light grey of the Peptide-1 marker at the top end of that curve, and agrees with the 1.3 ± 0.1 µM of the text.
Method: RNase A was immobilized on the gold surface of the SPR chip used in the SPR biosensor to conduct the binding analysis. For the manufacture of the SPR chip, a 2 nm thick titanium adhesive layer and a 48 nm thick gold surface were consecutively sputter-coated onto BK-7 glass (1×1 cm²). […] To analyze the binding of the expressed Fv antibody to RNase A, Fv antibodies in the concentration range of 0.37-100 nM were reacted using PBS buffer as the […] through association (10 minutes), equilibrium (5 minutes), and dissociation (10 minutes) steps. The washing buffer and total SPR measurements were performed at a flow rate of 15 μL/min. […]
Using the screened CDR3 amino acid sequences, the CDR3 regions of the screened Fv antibodies were synthesized as peptides, and the amino acid sequences were determined from the nucleotide sequences of the CDR3 regions as summarized in Table 7. […] The SPR signal was plotted according to the concentration of the synthetic peptides, and the affinity constants (KD) of these synthetic peptides were calculated through a fitting process.

[8] = molecular target: T1, Ribonuclease A (Type II-A) from bovine …; assay: SPR biosensor, RNase A immobilized on the Au chip, peptide in solution
Method: as §1
as §2, with “Table 7.” for “Table 2.”, “affinity constant” for “affinity constants”, “of the” for “of these”, “A was” for “A were”

Row | Binder | decrease of RNase A activity after approximately 27 minutes, cCMP assay, pig swab actual sample, 1 µM inhibitor [1] | decrease of RNase A activity after approximately 27 minutes, cCMP assay, saliva swab actual sample, 1 µM inhibitor [2] | Fv-antibody concentration at which the RNase inhibitory activity is over 50%, HeLa total RNA cleavage, agarose gel [3] | IC50, RNase activity analysis with the RNA probe [3] | IC50, cCMP assay (hydrolysis of 2',3'-cyclic CMP, absorbance at 286 nM) [3] | IC50 for RNase A activity inhibition, HeLa total RNA cleavage, agarose gel image, dose-response curve fitting [3] | decrease of RNase A activity after approximately 27 minutes, cCMP assay, serum actual sample, 1 µM inhibitor [4] | Kd [5] | IC50 (RNase A activity after treatment with Fv-3 beads, 1/10 diluted Pig Swab, RNase A 10 ng, RNA gel) [6] | IC50 (RNase A activity after treatment with Fv-3 beads, 1/10 diluted Saliva Swab, RNase A 10 ng, RNA gel) [6] | IC50 (RNase A activity after treatment with Fv-3 beads, 1/10 diluted Serum, RNase A 10 ng, RNA gel) [6] | Kd [7] | Kd [8] | IC50 by linear regression, RNA probe assay [3] | IC50 for the inhibition of RNase A activity, HeLa total RNA cleavage, agarose gel image [3] | peptide concentration at which the RNase inhibition activity is over 50%, HeLa total RNA cleavage, agarose gel [3] | relative inhibition level after 60 minutes, RNA probe assay (fluorophore and quencher), peptide at 1 µM [3]
1 | B1 | ~61% | ~42% | ≥ 350 nM | 90.2 nM | 194 nM | 234 nM | ~55% | 17.5 nM | – | – | – | – | – | – | – | – | –
2 | B2 | ~55% | ~60% | ≥ 350 nM | 98.8 nM | 196 nM | 436 nM | ~52% | 33.9 nM | 632 nM | 838 nM | 1010 nM | – | – | – | – | – | –
3 | B3 | ~41% | ~30% | – | – | 607 nM | – | ~53% | – | – | – | – | 1350 nM | 1300 nM | 8100 nM | 995 nM | > 1 µM | 54.4%
4 | B4 | ~41% | ~44% | – | – | 373 nM | – | ~55% | – | – | – | – | – | 1300 nM | 3600 nM | 658 nM | > 1 µM | 53.2%
5 | B5 | ~41% | ~35% | – | – | 356 nM | – | ~60% | – | – | – | – | – | 3700 nM | 400 nM | 464 nM | > 1 µM | 50.3%
6 | B6 | ~49% | ~63% | ≥ 350 nM | 65.3 nM | 236 nM | 366 nM | ~55% | 28.8 nM | – | – | – | – | – | – | – | – | –

From patent publication US20260217863A1 (UIF UNIVERSITY INDUSTRY FOUNDATION YONSEI UNIVERSITY, published 2026)
